Results on nine molecules are retold here after patent publication US20110293610A1 (published 2011).

The target in assay [1] is LIGHT (human, UniProt O43557 74-240, limits assumed). In words: phage ELISA. A general note: An ELISA detects its analyte on a solid surface through an enzyme-linked reagent.
In assay [2] the target is T1, Bovine serum albumin (bovine, UniProt P02769 25-607).
T1 construct: also called BSA
In words: phage ELISA.

For assay [3], the target named is T2, TNF-alpha (human, UniProt P01375 77-233).
T2 construct: also called TNFα; TNF-α
T2 sequence (P01375 77-233 limits assumed): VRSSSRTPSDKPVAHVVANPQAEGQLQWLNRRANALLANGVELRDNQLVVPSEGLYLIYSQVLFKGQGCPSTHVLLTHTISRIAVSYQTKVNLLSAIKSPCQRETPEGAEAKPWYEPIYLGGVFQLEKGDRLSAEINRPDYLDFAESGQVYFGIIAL
In words: phage ELISA.

In assay [4] the target is T3, TNF-beta (human, UniProt P01374 35-205).
T3 construct: also called TNFβ; Tumour Necrosis Factor-beta
T3 sequence (looked up): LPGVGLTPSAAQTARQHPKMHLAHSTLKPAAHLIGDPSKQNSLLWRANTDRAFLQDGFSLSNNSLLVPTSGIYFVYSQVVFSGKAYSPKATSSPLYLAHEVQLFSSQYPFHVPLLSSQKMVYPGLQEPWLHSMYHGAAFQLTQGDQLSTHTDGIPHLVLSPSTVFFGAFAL
In words: phage ELISA.

The target in assay [5] is T4, TRAIL (human, UniProt P50591 114-281).
T4 construct: also called TNF-related apoptosis inducing ligand
T4 sequence (P50591 114-281 limits assumed): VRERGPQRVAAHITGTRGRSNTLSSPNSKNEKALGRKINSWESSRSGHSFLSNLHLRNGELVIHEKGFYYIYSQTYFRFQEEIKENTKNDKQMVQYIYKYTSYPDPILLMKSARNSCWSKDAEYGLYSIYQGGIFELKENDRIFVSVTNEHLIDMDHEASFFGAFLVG
Description: phage ELISA.

The target of assay [6] is T5, B Lymphocyte Stimulator, soluble form (human) (human, UniProt Q9Y275 134-285, biotinylated with NHS-biotin where used as biotinylated B Lymphocyte Stimulator).
T5 construct: Coated on plastic, captured on streptavidin plates, amine-coupled to a CM5 chip or free in solution, depending on the assay; also called BLyS; immobilized B Lymphocyte Stimulator
In words: purified scFv, inhibition of biotinylated BLyS binding to IM9 cells. On the procedure: To a separate 96-well plate, titrate test scFvs in MPBS, in triplicate, over a concentration range from 10 μg/ml down to 0.001 μg/ml were added. The final volume of test scFv in each well was 55 μl. […] Plates were then incubated at room temperature for 30 minutes.
Plates were washed three times in PBST and three times in PBS, tapped dry and 50 μl per well added of streptavidin-Delfia (Wallac) at 1:1000 dilution in the Manufacturer's assay buffer. The plates were then incubated at room temperature for 1 hour and washed six times in Delfia wash solution (Wallac). After tapping the plates dry, 100 μl per well of Delfia enhancement solution (Wallac) was added. The plates were gently tapped to encourage micelle formation, incubated at room temperature for 10 minutes, and fluorescence read on a Wallac 1420 workstation at […].

In assay [7] the target is T6, mouse B Lymphocyte Stimulator (mouse, UniProt Q9WU72 127-309, limits assumed).
T6 construct: also called murine B Lymphocyte Stimulator; immobilized mouse B Lymphocyte Stimulator
T6 sequence (Q9WU72 127-309 limits assumed): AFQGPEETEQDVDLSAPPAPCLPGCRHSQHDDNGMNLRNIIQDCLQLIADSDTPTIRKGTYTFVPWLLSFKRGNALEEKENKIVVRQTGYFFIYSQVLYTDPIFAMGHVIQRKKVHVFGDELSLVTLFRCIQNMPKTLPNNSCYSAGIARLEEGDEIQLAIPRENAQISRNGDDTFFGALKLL
Description: phage ELISA.

The target of assay [8] is T7, Fas ligand (human, UniProt P48023 134-281, limits assumed).
T7 sequence (looked up): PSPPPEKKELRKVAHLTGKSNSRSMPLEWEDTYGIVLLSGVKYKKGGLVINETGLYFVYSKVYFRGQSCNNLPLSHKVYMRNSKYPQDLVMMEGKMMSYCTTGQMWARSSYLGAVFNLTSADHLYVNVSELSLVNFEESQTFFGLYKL
In words: phage ELISA.

The target in assay [9] is T5, B Lymphocyte Stimulator, soluble form …. In words: phage competition ELISA on P388 plasma membranes. On the procedure:
P388 plasma membranes (50 μl per well) were coated at 10 μg/ml in PBS onto Falcon 96-well plates overnight at 4° C. The method is otherwise essentially as described Example 16.

Assay [10] has as its target T8, membrane-bound B Lymphocyte Stimulator on U937 plasma membrane preparations (human, UniProt Q9Y275 1-285).
T8 construct: Natural protein in plasma membrane fractions of the human cell line U937 coated on ELISA plates; also called U937 plasma membranes; U937 membranes
Description: phage ELISA.

In assay [11] the target is T5, B Lymphocyte Stimulator, soluble form …. Description: phage competition ELISA on U937 plasma membranes. The method, then: (§1) For each test phage antibody, 3 aliquots of 20 μl 18% marvel/6×PBS were transferred into separate wells of a 96-well plate. The first aliquot was supplemented with His-tagged B Lymphocyte Stimulator to a final concentration of 60 μg/ml. The second aliquot was supplemented with soluble B Lymphocyte Stimulator to a final concentration of 60 μg/ml. The third aliquot was not supplemented with any competing antigen. One hundred μl of phage supernatant was then added to each aliquot and left to block at room temperature for 1 hour.
(§2) The antigen-coated plates were washed once with PBS before the addition of 200 μl/well 3% marvel/PBS. These plates were left to block at 37° C. for 1 hour and were then washed once with PBS. Duplicate samples of 50 μl pre-blocked phage (above) were added to the antigen-coated plates and left at room temperature for 1 hour. Plates were washed 3× with PBS/0.1% Tween 20, then 3× with PBS. Fifty μl/well mouse anti-M13 HRP (Pharmacia) at 1/5000 in 3% Marvel/PBS was added and left for 1 hour at room temperature. Plates were washed 3 times with PBS/0.1% Tween 20, then 3 times with PBS. Fifty […] HRP-labelled anti-mouse Envision polymer (DAKO) at 1/50 in 3% marvel/PBS was added and left for 1 hour at RT. Plates were washed 3 times with PBS/0.1% Tween 20, then 3 times with PBS. Next, 50 μl/well of TMB (Sigma) was added and plates left to develop for 30 to 60 minutes. When sufficient color has developed, 25 μl/well 0.5M H₂SO₄ was added to stop the reaction. The plates were read at 450 nm on a microtiter plate reader (Bio-Rad 3550).

Assay [12] has as its target T9, HIS-tagged B Lymphocyte Stimulator (human, UniProt Q9Y275 71-285).
T9 construct: Expressed in E. coli from pQE9 and purified; also called histidine-tagged B Lymphocyte Stimulator; HIS-B Lymphocyte Stimulator; not shown: histidine tag of the pQE9 vector
In words: phage competition ELISA on U937 plasma membranes. The method, then: as §1, §2

Assay [13] has as its target T5, B Lymphocyte Stimulator, soluble form …. Description: phage competition ELISA.

Chain of LIGHT (O43557 74-240 limits assumed): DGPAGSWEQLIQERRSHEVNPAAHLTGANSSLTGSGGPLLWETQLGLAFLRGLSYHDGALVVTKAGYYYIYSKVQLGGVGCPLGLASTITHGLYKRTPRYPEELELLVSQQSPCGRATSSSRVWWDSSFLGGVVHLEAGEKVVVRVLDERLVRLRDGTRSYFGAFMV
T1 sequence (P02769 25-607 limits assumed): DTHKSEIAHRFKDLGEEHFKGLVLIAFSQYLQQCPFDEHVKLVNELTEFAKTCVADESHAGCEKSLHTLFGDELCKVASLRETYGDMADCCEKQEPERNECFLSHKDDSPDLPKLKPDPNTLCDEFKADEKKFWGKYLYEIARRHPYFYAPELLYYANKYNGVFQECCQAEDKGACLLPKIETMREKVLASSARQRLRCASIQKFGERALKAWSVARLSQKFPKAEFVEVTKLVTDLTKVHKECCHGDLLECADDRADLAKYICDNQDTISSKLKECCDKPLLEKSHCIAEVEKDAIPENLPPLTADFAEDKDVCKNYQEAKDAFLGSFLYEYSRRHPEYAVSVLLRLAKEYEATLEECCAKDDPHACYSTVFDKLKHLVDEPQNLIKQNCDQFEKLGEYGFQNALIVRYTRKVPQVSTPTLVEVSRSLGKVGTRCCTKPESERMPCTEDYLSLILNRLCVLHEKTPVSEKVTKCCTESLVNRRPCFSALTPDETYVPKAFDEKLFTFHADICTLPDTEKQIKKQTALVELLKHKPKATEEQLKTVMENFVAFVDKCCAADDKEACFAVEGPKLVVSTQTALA

B1: I074B12 (scFv)
scFv: EVQLVQSGAEVKKPGSSVKVSCRASGGSFNHAISWVRQAPGRGLEWMGGILPMYGTANYAQKFQGRVTITADKLTNTVYMDLSRLRYEDTAVYYCARELGLSIVGATTGALDMWGRGTLVTVSSGGGGSGGGGSGGGGSALSYELTQPPSASGTPGQRVTISCSGSTSNIGSNAVNWYRQLPGTAPKLLVYSNNQVPSGVPDRFSGSKSGTSASLAISGLQSEDEADYYCAAWDDSLSGYVFGTGTQLTVLS
As for B1, the binding result in assay [1], in assay [2], in assay [3], in [4] and in [5] was “no binding” throughout. Moreover, the IC50 (usually the midpoint of a concentration-inhibition curve) in assay [6] was found to be 13 nM.

B2: I007F11 (scFv)
scFv: GVQLVQSGAEVKKPGASVKVSCKASGYTFTNYGITWVRQTPGQGLEWMGWISAYNGNRNYAQKLQGRVTMTTDTSTSTAYMELRSLRSDDTAVYYCVRDGIDILLVPAALMDVWGQGTMVTVSSGGGGSGGGGSGGGGSQSVLTQPASVSGSPGQSITISCTGTSSDVGGYNYVSWYQQHPGKAPKLMIYEGSKRPSGVSNRFSGSKSGNTASLTISGLQAEDEADYYCSSYTTRSTRVFGGGTKLTVLG
B2: the binding result in [7], in [3], in assay [4], in [8] and in assay [5] was “no binding” throughout. Further, the 50% inhibitory concentration (IC50) in [6] amounted to 7.9 nM.

B3: I079E02 (scFv)
scFv: QVQLVQSGAEVKKPGSSVKVSCKASGGTFSSYAISWVRQAPGQGLEWMGGIIPIFGTANYAQKFQGRVTITADKSTSTAYMELSSLRSDDTAVYYCARDSGSYYYDAFDIWGKGTMVTVSSGGGGSGGGGSGGGGSDIVMTQSPSTLSASVGDRVTITCRASQGISSWLAWYQQKPGKAPKLLIYAASSLQSGVPSRFSGSGSGTDFTLTISSLQPEDFATYYCQQANSFPLTFGGGTKVEIKR
Consider B3, for which the binding result in [9] is “no binding”.

B4: I079F08 (scFv)
scFv: QMQLVQSGGGVVQPGRSLRLSCAASGFTFSSYGMHWVRQAPGKGLEWVAVISYDGSIKYYADSVKGRFTISRDNSKNTLYLQMNSLRAEDTAVYYCARYYYHSSGSDAFDIWGQGTLVTVPSGGGGSGGGGSGGGGSQSVLTQPPSASGTPGQRVTISCSGSSSNIGSNTVNWYQRLPGAAPQLLIYNNNQRPSGVPDRFSGSKSGTSASLAISGLQSEDEADYYCAAWDDSLNGWVFGGGTKLTVLG
B4: the binding result is given as “binds” in assay [10], “no binding (tested: 60 µg/ml competing antigen)” in [11] and “binds” in [12].

B5: I050A07 (scFv)
scFv: QVQLVQSGAEVKKPGASMKVSCKASAGRASAYGFAMHPIHWVRQAPGQGLEWMGWINGGTGNTKYSEKFLGRVTMTSDTSATTAYMELSSLRSEDTAVYYCARQDNDPLTGYKLGFDYWGKGTLVTVSSGGGGSGGGGSGGGGSAQSVVTQPPSVSGAPGQRVTISCTGSSTNVGAGYGVHWYQQFPETAPKLLIYGGSNRPSGVPDRFSGSQSGTSASLAITGLQAEDEADYYCQSYDTTLSGYVFGTGTKVTVLG
On to B5, for which the binding result in [4], in [8] and in [5] was “no binding” each time. This molecule also had an IC50 in assay [6] of 17.1 nM.

B6: I016H07 (scFv)
scFv: GVQLVQSGAEVKKPGASVKVSCKASGYTFTHYAINWLRQAPGQRPEWMGTINTGNGNTKYSQNFQGRLTITRDTSASTVNMELSSLRSEDTAVYYCAGGYHDPLTSYNYNWFDPWGQGTMVTVSSGGGGSGGGGSGGGGSSELTQDPAVSVALGQTVRITCQGDSLRSYYTNWFQQKPGQAPLLVVYAKNKRPSGIPDRFSGSSSGNTASLTITGAQAEDEADYYCHSRDSSGNHVLFGGGTKLTVLG
For B6, the binding result was “binds” in assay [10]; “no binding” in assay [7]; “no binding” in [3]; “no binding” in assay [4]; “no binding” in [8]; “no binding” in assay [5]. In assay [13], the binding result is on record as “binds”.

B7: I082H08 (scFv)
scFv: EVQLVESGGGLVQPGGSLRLSCAASGFTFSDYGMHWVRQRPGKGLEWIAFIGSDGSNKYYGDTVKGRFTISRDNAKNSLYLQMNSLRAEGTAVYYCARDWDMDVWGQGTMVTVSSGGGGSGGGGSGGGGSSHVILTQPRSVSGSPGQSVTISCTGTSSDVGGYHYVSWYQQHPGKAPRLMIYEVTKRPSGVSNRFSGSKSGNTASLTISGVQAEDEADYYCSSYTSASTVIFGGGTKLTVLG
For the molecule B7, the binding result in [9] was “no binding”.

B8: I080B01 (scFv)
scFv: QVQLVQSGAEVKKPGASVKVSCKASGYTFTNYYMHWVRQAPGQGLEWMGIINPRDVSTTYAQKFQGRATMTRDTSTSTVYMELNSLRSEDTAVYYCAREYSGYHYVEGGSYAMDVWGQGTMVTVSSGGGGSGGGGSGGGGSALSYVLTQPPSASGTPGQRVTITCSGSSSNIGNYYVNWYQQVSGTAPKLIIYRNNQRPSGVPDRFSGSKSGASASLAISGLRSEDEADYFCAAWDDSLREFVFGTGTKVTVLG
As to B8, the binding result in assay [10] is listed as “binds”; in [11], “no binding (tested: 60 µg/ml competing antigen)”; in assay [12] it was “binds”.

B9: I079B04 (scFv)
scFv: EVQLVESGGGLVQPGGSLRLSCAASGFTFSDYAMSWVRQAPGKGLEWVSAISGSGGSTSYADSVKGRFTISRDNSKNTLYLQMNSLRAEDTAVYYCASLLSDYWGRGTTVTVSSGGGGSGGGGSGGGGSQSVLTQPASVSGSPGQSITISCTGTSSDVGGYNYVSWYQQHPGKAPKLMIYEGSKRPSGVSYRFSGSKSGNTASLTISGLQAEDEADYYCSSYTTRSTRVFGGGTKLTVLG
On to B9, for which the binding result is “binds” in assay [10], “no binding (tested: 60 µg/ml competing antigen)” in assay [11] and “binds” in assay [12].
